# Results published in the supplement of paper PMC10567573.
# B1: TSPAN10 (parent)
# chain: EGCGPPLRRWLRANLAASGGYAIA
# Variants of: B1
# Assay: protein stability index of a GFP-peptide fusion (GPS, HEK-293T) (PSI 1-6); higher = more stable
# Conditions: c terminus: a fixed tail appended
# 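Further: lentivirally expressed fusions sorted by FACS into six bins by GFP to DsRed ratio, PSI derived from sequencing read proportions per bin multiplied by bin number.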
row,Variant,protein stability index
1,EGCGPPLREWLRANLAASGGYAIA [R9E],2.28
2,EGCGPPLRVWLRANLAASGGYAIA [R9V],1.65
3,EGCGPPLRSWLRANLAASGGYAIA [R9S],2.33
4,EGCGPPLRKWLRANLAASGGYAIA [R9K],1.79
5,EGCGPPLRNWLRANLAASGGYAIA [R9N],2.72
6,EGCGPPLRGWLRANLAASGGYAIA [R9G],1.25
7,EGCGPPLRLWLRANLAASGGYAIA [R9L],1.05
8,EGCGPPLRHWLRANLAASGGYAIA [R9H],1.58
9,EGCGPPLRAWLRANLAASGGYAIA [R9A],1.55
10,EGCGPPLRCWLRANLAASGGYAIA [R9C],1.29
11,EGCGPPLRQWLRANLAASGGYAIA [R9Q],1.81
12,EGCGPPLRTWLRANLAASGGYAIA [R9T],1.7
13,EGCGPPLRDWLRANLAASGGYAIA [R9D],1.9
14,EGCGPPLRYWLRANLAASGGYAIA [R9Y],2.29
15,EGCGPPLRPWLRANLAASGGYAIA [R9P],2.54
16,EGCGPPLRIWLRANLAASGGYAIA [R9I],2.9
17,EGCGPPLRWWLRANLAASGGYAIA [R9W],1
18,EGCGPPLRMWLRANLAASGGYAIA [R9M],1.65
19,EGCGPPLRRWLRAALAASGGYAIA [N14A],2.3
20,EGCGPPLRRWLRALLAASGGYAIA [N14L],1.02
21,EGCGPPLRRWLRAELAASGGYAIA [N14E],1.47
22,EGCGPPLRRWLRAFLAASGGYAIA [N14F],1.92
23,EGCGPPLRRWLRAMLAASGGYAIA [N14M],2.08
24,EGCGPPLRRWLRAPLAASGGYAIA [N14P],2.06

row,Variant,protein stability index
1,EGCGPPLRRWLRAYLAASGGYAIA [N14Y],1.46
2,EGCGPPLRRWLRAWLAASGGYAIA [N14W],1.83
3,EGCGPPLRRWLRAKLAASGGYAIA [N14K],2.81
4,EGCGPPLRRWLRATLAASGGYAIA [N14T],1.86
5,EGCGPPLRRWLRARLAASGGYAIA [N14R],1.74
6,EGCGPPLRRWLRADLAASGGYAIA [N14D],1.86
7,EGCGPPLRRWLRAGLAASGGYAIA [N14G],2.24
8,EGCGPPLRRWLRAILAASGGYAIA [N14I],1.05
9,EGCGPPLRRWLRAQLAASGGYAIA [N14Q],1.39
10,EGCGPPLRRWLRASLAASGGYAIA [N14S],1.93
11,EGCGPPLRRWLRAHLAASGGYAIA [N14H],2.48
12,EGCGPPLRRWLRANLAYSGGYAIA [A17Y],1.97
13,EGCGPPLRRWLRANLARSGGYAIA [A17R],1.44
14,EGCGPPLRRWLRANLAFSGGYAIA [A17F],1.35
15,EGCGPPLRRWLRANLAMSGGYAIA [A17M],2.2
16,EGCGPPLRRWLRANLALSGGYAIA [A17L],1.63
17,EGCGPPLRRWLRANLAHSGGYAIA [A17H],2
18,EGCGPPLRRWLRANLACSGGYAIA [A17C],1.39
19,EGCGPPLRRWLRANLAWSGGYAIA [A17W],2.03
20,EGCGPPLRRWLRANLASSGGYAIA [A17S],1.84
21,EGCGPPLRRWLRANLATSGGYAIA [A17T],1.4
22,EGCGPPLRRWLRANLADSGGYAIA [A17D],2.71
23,EGCGPPLRRWLRANLAISGGYAIA [A17I],2.67
24,EGCGPPLRRWLRANLAGSGGYAIA [A17G],1.59

row,Variant,protein stability index
1,EGCGPPLRRWLRANLAVSGGYAIA [A17V],1.4
2,EGCGPPLRRWLRANLANSGGYAIA [A17N],2.96
3,EGCGPPLRRWLRANLAKSGGYAIA [A17K],1.7
4,EGCGPPLRRWLRANLAPSGGYAIA [A17P],1.81
5,EGCGPPLRRWLRANLAESGGYAIA [A17E],2.63
6,EGCGPPLRRWLRANLAQSGGYAIA [A17Q],2.79
7,EGCGPPLQRWLRANLAASGGYAIA [R8Q],2.05
8,EGCGPPLHRWLRANLAASGGYAIA [R8H],1.58
9,EGCGPPLMRWLRANLAASGGYAIA [R8M],2.16
10,EGCGPPLTRWLRANLAASGGYAIA [R8T],1.71
11,EGCGPPLGRWLRANLAASGGYAIA [R8G],1.71
12,EGCGPPLPRWLRANLAASGGYAIA [R8P],1.46
13,EGCGPPLFRWLRANLAASGGYAIA [R8F],1.3
14,EGCGPPLKRWLRANLAASGGYAIA [R8K],1.85
15,EGCGPPLWRWLRANLAASGGYAIA [R8W],1.31
16,EGCGPPLSRWLRANLAASGGYAIA [R8S],1.7
17,EGCGPPLIRWLRANLAASGGYAIA [R8I],2.1
18,EGCGPPLLRWLRANLAASGGYAIA [R8L],1.37
19,EGCGPPLVRWLRANLAASGGYAIA [R8V],2.7
20,EGCGPPLNRWLRANLAASGGYAIA [R8N],1.83
21,EGCGPPLRRRLRANLAASGGYAIA [W10R],3.5
22,EGCGPPLRRGLRANLAASGGYAIA [W10G],3.35
23,EGCGPPLRRFLRANLAASGGYAIA [W10F],1.61
24,EGCGPPLRRTLRANLAASGGYAIA [W10T],3.01

row,Variant,protein stability index
1,EGCGPPLRRCLRANLAASGGYAIA [W10C],2.03
2,EGCGPPLRRALRANLAASGGYAIA [W10A],3.63
3,EGCGPPLRRILRANLAASGGYAIA [W10I],2.94
4,EGCGPPLRRHLRANLAASGGYAIA [W10H],2.53
5,EGCGPPLRRVLRANLAASGGYAIA [W10V],1.89
6,EGCGPPLRRQLRANLAASGGYAIA [W10Q],2.24
7,EGCGPPLRRNLRANLAASGGYAIA [W10N],2.55
8,EGCGPPLRRKLRANLAASGGYAIA [W10K],2.09
9,EGCGPPLRRSLRANLAASGGYAIA [W10S],2.81
10,EGCGPPLRRLLRANLAASGGYAIA [W10L],2.42
11,EGCGPPLRRELRANLAASGGYAIA [W10E],3.4
12,EGCGPPLRRDLRANLAASGGYAIA [W10D],3.25
13,EGCGPPLRRYLRANLAASGGYAIA [W10Y],2.44
14,EGCGPPLRRPLRANLAASGGYAIA [W10P],3.39
15,EGCGPPLRRMLRANLAASGGYAIA [W10M],2.62
16,EGCGPPLRRWLRANLAALGGYAIA [S18L],2.19
17,EGCGPPLRRWLRANLAAAGGYAIA [S18A],1.97
18,EGCGPPLRRWLRANLAAHGGYAIA [S18H],1.87
19,EGCGPPLRRWLRANLAAFGGYAIA [S18F],2.57
20,EGCGPPLRRWLRANLAAEGGYAIA [S18E],1.75
21,EGCGPPLRRWLRANLAACGGYAIA [S18C],2.15
22,EGCGPPLRRWLRANLAAGGGYAIA [S18G],1.98
